The text below walks through data of US20180186871A1.

First the molecules themselves.
T1: murine IL-11 (mouse) (UniProt P47873)
T1 sequence (looked up): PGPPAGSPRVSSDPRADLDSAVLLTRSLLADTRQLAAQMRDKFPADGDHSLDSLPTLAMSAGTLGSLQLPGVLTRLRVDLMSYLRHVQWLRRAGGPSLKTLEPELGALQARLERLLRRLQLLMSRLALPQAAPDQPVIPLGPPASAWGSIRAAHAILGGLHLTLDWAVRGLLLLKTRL

B1: YU100-A11 (scFv)
scFv: EVQLQQSGGGVVQPGRSLRLSCAASGFTFSSYGMHWVRQAPGKGLEWVAVISYDGSNKYYADSVKGRFTISRDNSKNTLYLQMNSLRAEDTAVYYCAKIGATDPLDYWGQGTLVTVSSGSASAPKLEEGEFSEARVQSALTQPRSVSGSPGQSVTISCTGTSSDVGGYNYVSWYQQHPGKAPKLMIYDVSKRPSGVPDRFSGSKSGNTASLTISGLQAEDEADYYCCSYAGSYTWVFGGGTKLTVL
B2: YU100-E07 (scFv)
scFv: QVQLQESGGGVVQPGRSLRLSCAASGFTFSSYGMHWVRQAPGKGLEWVAVISYDGSNRYYADSVKGRFAISRDNSKNTLYLQMNSLRAEDTAVYYCAKIGATDPLDYWGQGTLVTVSSGSASAPKLEEGEFSEARVQSALTQPRSVSGSPGQSVTISCTGTSSDVGGYDYVSWYQQHPGKAPELMIYDVTKRPSGVADRFSGSKSGNTASLTISGLQAEDEADYYCCSYAGRYTWVFGGGTKLTVL
B3: YU112-F05 (scFv)
scFv: EVQLVQSGGGVVQPGRSLRLSCAASGFTFGSYGMHWVRQAPGKGLEWVAVISYDGSNKYYADSVKGRFTISRDNSKNTLYLQMNSLRAEDTAVYYCAKIGATDPLDYWGQGTLVTVSSGSASAPKLEEGEFSEARVQSALTQPRSVSGSPGQSVTISCTGTSSDVGGYNYVSWYQQHPGKAPKLIIYDVNNRPSGVSNRFSASKSGNTASLTISGLQAEDEADYYCNSYTSGSTWVFGGGTKLTVL
B4: YU100-H02 (scFv)
scFv: QVQLQQSGGGVVQPGRSLRLSCAASGFTFSSYGMHWVRQAPGKGLEWVAVISYDGSNKYYADSVKGRFTISRDNSKNTLYLQMNSLRAEDTAVYYCARIMGYDYGDYDVVDYWGQGTLVTVSSGSASAPKLEEGEFSEARVQSALTQPRSVSRSPGQSVTISCTGTSSDVGTYNYVSWYQQHPGKAPKLMIYDVSKRPSGVPDRFSGSKSGNTASLTISGLQAEDEADYYCCSYAGFYTWVFGGGTKLTVL

This assay deals with T1, murine IL-11 (mouse). Briefly: ELISA binding signal. In general terms: In an ELISA, binding on a coated surface is turned into a signal by an enzyme label.
For B1, the mIL11 - average signal stood at 0.372.

The molecule B2 showed a mIL11 - average signal of 0.247.

Consider B3, for which the mIL11 - average signal worked out at 0.601.

As to B4, the mIL11 - average signal is 0.188.
